This note sets out measurements from patent US20150056210A1 (published 2015).

For the assay, the target named is Spacer-GST. Description: SPR (Biacore X-100). (In general: SPR reads the build-up and loss of mass on a sensor chip optically.)

B1: CRB0017_IgG4 (antibody, V domains shown)
VH: QVQLQQSGAELAKPGASVKMSCKASGYTFTSYWMHWVKQRPGQGLEWIGYINPSTGYTEYNQKFKDKATLTADKSSSTAYMQLGSLTSEDSAVYYCARGGYDDLGYWGQGTTLTVSS
VL: DIVITQDELSNPVTSGESVSISCRSSKSLLYKDGKTYLYWFLQRPGQSPQLPIYLMSTRASGVSDRFSGSGSGTDFTLEISRVKAEDVGVYYCQQLVEYPYTFGGGTKLEIK
By Kd is commonly meant the constant that tells how readily two partners part at equilibrium. Low readings indicate tighter binding, high ones weaker binding. In turn, B1 registered a Kd of 2.15 nM.
